From publication PMC3630463 (Nature communications, 2013)

T1: rVps1 (His-Vps1; yeast dynamin homolog Vps1) (Saccharomyces cerevisiae, UniProt P21576)
T1 sequence (P21576 1-704): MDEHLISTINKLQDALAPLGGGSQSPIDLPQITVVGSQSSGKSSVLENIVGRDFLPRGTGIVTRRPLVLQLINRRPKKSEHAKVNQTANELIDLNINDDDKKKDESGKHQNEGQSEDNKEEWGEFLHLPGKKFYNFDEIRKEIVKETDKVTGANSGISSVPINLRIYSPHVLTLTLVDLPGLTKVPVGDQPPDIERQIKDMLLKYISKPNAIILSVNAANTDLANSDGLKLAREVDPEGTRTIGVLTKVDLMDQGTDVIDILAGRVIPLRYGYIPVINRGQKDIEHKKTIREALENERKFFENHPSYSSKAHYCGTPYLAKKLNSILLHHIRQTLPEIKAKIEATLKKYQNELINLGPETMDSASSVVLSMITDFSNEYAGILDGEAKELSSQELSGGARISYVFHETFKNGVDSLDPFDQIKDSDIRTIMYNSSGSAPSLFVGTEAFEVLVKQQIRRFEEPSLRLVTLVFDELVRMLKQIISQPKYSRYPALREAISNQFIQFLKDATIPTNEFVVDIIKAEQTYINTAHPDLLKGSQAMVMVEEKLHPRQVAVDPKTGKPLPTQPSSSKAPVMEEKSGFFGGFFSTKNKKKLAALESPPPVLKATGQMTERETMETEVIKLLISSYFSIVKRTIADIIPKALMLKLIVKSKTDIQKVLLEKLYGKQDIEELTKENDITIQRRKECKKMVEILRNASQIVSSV

T2: recombinant Vps1 (yeast, UniProt P21576 1-704)
T2 sequence: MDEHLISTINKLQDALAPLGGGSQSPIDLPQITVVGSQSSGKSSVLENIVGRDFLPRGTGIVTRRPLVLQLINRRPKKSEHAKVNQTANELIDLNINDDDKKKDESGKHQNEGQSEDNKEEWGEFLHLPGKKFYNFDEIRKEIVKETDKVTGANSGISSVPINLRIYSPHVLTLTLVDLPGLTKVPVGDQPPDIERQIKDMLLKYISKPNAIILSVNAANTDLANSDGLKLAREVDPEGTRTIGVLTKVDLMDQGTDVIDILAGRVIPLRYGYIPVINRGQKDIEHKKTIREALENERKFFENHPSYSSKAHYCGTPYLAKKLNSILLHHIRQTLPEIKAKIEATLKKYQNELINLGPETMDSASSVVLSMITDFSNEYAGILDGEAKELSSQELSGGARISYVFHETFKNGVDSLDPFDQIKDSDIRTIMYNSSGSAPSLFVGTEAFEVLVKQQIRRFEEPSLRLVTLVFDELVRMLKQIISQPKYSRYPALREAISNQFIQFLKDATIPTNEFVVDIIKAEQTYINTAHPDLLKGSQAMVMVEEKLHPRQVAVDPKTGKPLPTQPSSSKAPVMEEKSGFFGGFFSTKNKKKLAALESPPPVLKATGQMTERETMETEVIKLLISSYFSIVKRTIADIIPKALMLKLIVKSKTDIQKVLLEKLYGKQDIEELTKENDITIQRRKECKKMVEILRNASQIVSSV


What was measured:
[1] = target: T1, rVps1 (His-Vps1; yeast dynamin homolog Vps1); assay: GTPase assay, released Pi by malachite green; type: biochemical; settings: read-out: % inhibition at 100 uM
[2] = target: T2, recombinant Vps1; assay: far-Western, overlay or dot blot

inhibition at 100 µM [1]	binding result [2]	Molecule
~60%		O=C(N/N=C/c1ccc(O)c(O)c1)c1cc2ccccc2cc1O [dynasore]
	binds	Vam3 full-length (1–252) (domain or fragment) MSFFDIEAQSSKGNSQQEPQFSTNQKTKELSNLIETFAEQSRVLEKECTKIGSKRDSKELRYKIETELIPNCTSVRDKIESNILIHQNGKLSADFKNLKTKYQSLQQSYNQRKSLFPLKTPISPGTSKERKDIHPRTEAVRQDPESSYISIKVNEQSPLLHNEGQHQLQLQEEQEQQQQGLSQEELDFQTIIHQERSQQIGRIHTAVQEVNAIFHQLGSLVKEQGEQVTTIDENISHLHDNMQNANKQLTRA
	binds	SNARE domain of Vam3 (190–252) (domain or fragment) TIIHQERSQQIGRIHTAVQEVNAIFHQLGSLVKEQGEQVTTIDENISHLHDNMQNANKQLTRA
